{"source": "paper PMC3186789", "target": "T1, Group B Streptococcus recombinant sortase A SrtA_(ΔN40) (Streptococcus agalactiae strain 515 (serotype Ia)) (UniProt Q8DZY1)", "T1 sequence": "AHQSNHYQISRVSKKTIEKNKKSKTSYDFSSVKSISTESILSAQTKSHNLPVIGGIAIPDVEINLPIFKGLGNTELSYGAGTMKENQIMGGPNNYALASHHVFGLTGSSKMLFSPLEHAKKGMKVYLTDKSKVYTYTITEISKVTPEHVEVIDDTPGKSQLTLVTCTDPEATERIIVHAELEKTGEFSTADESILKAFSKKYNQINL", "note": "Primed or numbered codes have the meaning given here. The star is where a group is joined. Dabcyl′ = CN(C)c1ccc(/N=N/c2ccc(C(=O)*)cc2)cc1; EDANS = O=S(=O)(O)c1cccc2c(NCCN*)cccc12", "data": [{"binder": "{Dabcyl′}-SFLPKTGM-{EDANS} (SMILES CSCC[C@H](NC(=O)CNC(=O)[C@@H](NC(=O)[C@H](CCCCN)NC(=O)[C@@H]1CCCN1C(=O)[C@H](CC(C)C)NC(=O)[C@H](Cc1ccccc1)NC(=O)[C@H](CO)NC(=O)c1ccc(/N=N/c2ccc(N(C)C)cc2)cc1)[C@@H](C)O)C(=O)NCCNc1cccc2c(S(=O)(=O)O)cccc12)", "note": "[AP2-2a peptide (Dabcyl-SFLPKTGM-Edans)]", "values": [{"measurement": "apparent Michaelis constant K (m,app) of the transpeptidation reaction (FRET assay, 1-384 µM peptide, 3 µM SrtA (ΔN40), 75 mM triglycine, 37°C, 20 mM HEPES pH 7.5)", "result": 48.4, "unit": "µM"}]}]}
